The text below walks through data of PMC4775073.

The assay addresses FLAG-CTRwt (full-length) (human) (UniProt P30988). Put plainly: proximity ligation; in situ PLA (Duolink) on fixed PC cells (PC-3CTRwt, PC-3CTR∆ESS, LNCaP) with anti-ZO-1 and anti-CTR sera; with/without 50 nM CT for 30 seconds; dots per cell counted.
UniProt P30988, sequence (P30988 25-474): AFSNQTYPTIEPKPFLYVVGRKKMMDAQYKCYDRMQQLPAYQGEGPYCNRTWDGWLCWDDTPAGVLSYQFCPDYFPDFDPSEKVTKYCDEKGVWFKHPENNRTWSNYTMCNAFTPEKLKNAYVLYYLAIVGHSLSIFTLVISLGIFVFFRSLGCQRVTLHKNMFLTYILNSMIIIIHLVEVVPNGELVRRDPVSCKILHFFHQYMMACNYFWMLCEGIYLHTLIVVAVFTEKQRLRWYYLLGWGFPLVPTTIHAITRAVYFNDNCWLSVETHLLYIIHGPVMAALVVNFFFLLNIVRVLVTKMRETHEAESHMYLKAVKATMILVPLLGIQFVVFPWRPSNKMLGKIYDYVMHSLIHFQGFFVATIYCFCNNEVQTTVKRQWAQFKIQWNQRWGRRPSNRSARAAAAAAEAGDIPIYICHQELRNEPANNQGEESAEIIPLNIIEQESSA

Substance “Zonula Occludens-1 (ZO-1), endogenous (from UniProt Q07157 1-1748) (natural protein)” registered a fold increase of PLA interactions with 50 nM CT (30 seconds) over no exogenous CT of 80 fold.
